Biological target: T1, purified human MMP-9 (human, UniProt P14780 20-707)
T1 construct: human matrix metalloproteinase 9; May be the same protein as MMP-9-6x His; Methods are in the supplementary file; source: purified
Experiment: BLI; ForteBio Octet; who was immobilised and buffer not told in the text shown; three biological replicates
Conditions: both partners purified

T1 sequence (P14780 20-707): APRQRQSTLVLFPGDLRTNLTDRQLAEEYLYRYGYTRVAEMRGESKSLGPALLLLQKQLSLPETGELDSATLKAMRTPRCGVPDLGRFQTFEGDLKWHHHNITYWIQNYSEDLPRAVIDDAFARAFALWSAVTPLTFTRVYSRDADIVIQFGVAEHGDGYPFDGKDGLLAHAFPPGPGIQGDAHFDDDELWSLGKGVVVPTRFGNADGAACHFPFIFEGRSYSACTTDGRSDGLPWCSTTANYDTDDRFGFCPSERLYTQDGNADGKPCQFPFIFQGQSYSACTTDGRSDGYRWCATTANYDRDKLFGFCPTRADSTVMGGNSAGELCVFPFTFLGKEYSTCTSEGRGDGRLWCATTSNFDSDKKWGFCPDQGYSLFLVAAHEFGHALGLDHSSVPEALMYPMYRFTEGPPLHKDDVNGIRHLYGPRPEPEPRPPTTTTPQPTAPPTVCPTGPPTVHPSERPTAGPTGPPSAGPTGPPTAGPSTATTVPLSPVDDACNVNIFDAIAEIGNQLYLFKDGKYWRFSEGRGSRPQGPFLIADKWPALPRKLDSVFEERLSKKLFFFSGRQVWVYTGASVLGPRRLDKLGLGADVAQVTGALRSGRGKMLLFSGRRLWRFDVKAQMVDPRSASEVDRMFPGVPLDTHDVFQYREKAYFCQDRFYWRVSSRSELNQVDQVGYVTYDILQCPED

B1: purified human TGM2 (transglutaminase 2) (enzyme, UniProt P21980 1-687, looked up)
chain: MAEELVLERCDLELETNGRDHHTADLCREKLVVRRGQPFWLTLHFEGRNYEASVDSLTFSVVTGPAPSQEAGTKARFPLRDAVEEGDWTATVVDQQDCTLSLQLTTPANAPIGLYRLSLEASTGYQGSSFVLGHFILLFNAWCPADAVYLDSEEERQEYVLTQQGFIYQGSAKFIKNIPWNFGQFEDGILDICLILLDVNPKFLKNAGRDCSRRSSPVYVGRVVSGMVNCNDDQGVLLGRWDNNYGDGVSPMSWIGSVDILRRWKNHGCQRVKYGQCWVFAAVACTVLRCLGIPTRVVTNYNSAHDQNSNLLIEYFRNEFGEIQGDKSEMIWNFHCWVESWMTRPDLQPGYEGWQALDPTPQEKSEGTYCCGPVPVRAIKEGDLSTKYDAPFVFAEVNADVVDWIQQDDGSVHKSINRSLIVGLKISTKSVGRDEREDITHTYKYPEGSSEEREAFTRANHLNKLAEKEETGMAMRIRVGQSMNMGSDFDVFAHITNNTAEEYVCRLLLCARTVSYNGILGPECGTKYLLNLNLEPFSEKSVPLCILYEKYRDCLTESNLIKVRALLVEPVINSYLLAERDLYLENPEIKIRILGEPKQKRKLVAEVSLQNPLPVALEGCTFTVEGAGLTEEQKTVEIPDPVEAGEEVKVRMDLLPLHMGLHKLVVNFESDKLKAVKGFRNVIIGPA
notes: human transglutaminase 2; the purified protein's band is called full-length TGM2 (100 kDa) in the cleavage assay; The printed 100 kDa for full-length TGM2 is larger than the native protein; also called recombinant TGM2; source: purified
Kd: 1980 nM

Source: article PMC12888920, “MMP-9 regulates disulphide isomerase activity of TGM2 to enhance fusion glycoprotein-mediated syncytium formation of respiratory syncytial virus” (Protein & Cell, 2025)
